Patent US20230257460A1 (Eli Lilly, published 2023)
Each block holds one binder with its values, some of them ahead of it.

Experiments:
Mouse INSL5 [1] = target: T1, Mouse INSL5 (mouse); assay: SPR (Biacore 8K), antibody captured on Protein A, INSL5 peptide as analyte, 25 C
T1 construct: Bought two-chain peptide (Phoenix Pharmaceuticals Cat #035-40); also called mouse insulin-like peptide-5; mouse INSL5 peptide
T1 chain 1: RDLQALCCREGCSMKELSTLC
T1 chain 2: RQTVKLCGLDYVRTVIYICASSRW
Procedure: (§1) Human INSL5 (Phoenix Pharmaceuticals Cat #035-70A) and mouse INSL5 (Phoenix Pharmaceuticals 035-40) are reconstituted at 0.5 (99 μM) or 1 mg/mL (195 μM) in DMSO, respectively. […] The antibodies of Example 1, 2, or a negative control are prepared by diluting them to 1 μg/mL in 1×HBS-EP+ buffer.
(§2) The experiment is conducted at 25° C. as well as at 37° C. and initiated with 5 start-up cycles of injecting 1×HBS-EP+ buffer. Then in each cycle, the antibody is captured onto flow cell 2 of channels 1-8 at 10 μL/min for 20 seconds. Next, 180 μL of the respective INSL5 peptide sample is individually injected across flow cells 1 and 2 for 180 seconds at 60 μL/min and then let dissociate for 1200 seconds at 60 μL/min flow rate. The surface is regenerated by injecting two 15 second pulses of 10 mM glycine-HCl pH 1.5 (BR-1003-54) at 30 μL/min. After a stabilization period of 60 seconds at a flow rate of 60 μL/min the next cycle is started.
(§3) The resulting sensorgrams are analyzed using Biacore 8K Evaluation Software). 1:1 binding kinetics model fitting is used to calculate the binding kinetic parameters association rate (ka), dissociation rate (kd), and equilibrium dissociation constant (KD).

Human INSL5 [2] = target: T2, Human INSL5 (human); assay: as above
T2 construct: also called human insulin-like peptide-5; human INSL5 peptide
T2 chain 1: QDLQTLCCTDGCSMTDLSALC
T2 chain 2: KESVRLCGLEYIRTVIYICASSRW
Procedure: as §1, §2, §3

Mouse INSL5 [3] = target: T1, Mouse INSL5; assay: SPR (Biacore 8K), antibody captured on Protein A, INSL5 peptide as analyte, 37 C
Procedure: as §1, §2, §3

Human INSL5 [4] = target: T2, Human INSL5; assay: as above
Procedure: as §1, §2, §3

- Kd (Mouse INSL5 [1]): 6.1 pM
- koff (Mouse INSL5 [1]): 0.00011 s⁻¹
- kon (Mouse INSL5 [1]): 1.8e+07 M⁻¹ s⁻¹
- Kd (Human INSL5 [2]): 0.021 nM
- koff (Human INSL5 [2]): 0.00034 s⁻¹
- kon (Human INSL5 [2]): 1.6e+07 M⁻¹ s⁻¹
- Kd (Mouse INSL5 [3]): 0.014 nM
- koff (Mouse INSL5 [3]): 0.00072 s⁻¹
- kon (Mouse INSL5 [3]): 5.1e+07 M⁻¹ s⁻¹
- Kd (Human INSL5 [4]): 0.081 nM
- koff (Human INSL5 [4]): 0.0033 s⁻¹
- kon (Human INSL5 [4]): 4e+07 M⁻¹ s⁻¹
B1: Antibody II (antibody, V domains shown)
VH: QSVEESGGGLVTPGGSLTLTCTVSGIDLTTYAMGWVRQAPGEGLEWIGIIGGGGRTYYAAWAKGRFTISKTSTTVDLRITSPATEDTATYFCVRGGDFFDLWGPGTLVTVSS
VL: AQVLTQTPASVSAAVGGTVTIKCQASEDISKYLSWYQQKPGQRPKLLIYYVSNLEFGVPSRFKGSGSGTEYTLTISDLECDDAATYYCHQGYTGVNVENVFGGGTEVVVRG

- Kd (Mouse INSL5 [1]): 4.6 pM
- koff (Mouse INSL5 [1]): 5.4e-05 s⁻¹
- kon (Mouse INSL5 [1]): 1.2e+07 M⁻¹ s⁻¹
- Kd (Human INSL5 [2]): 0.041 nM
- koff (Human INSL5 [2]): 0.00036 s⁻¹
- kon (Human INSL5 [2]): 8.8e+06 M⁻¹ s⁻¹
- Kd (Mouse INSL5 [3]): 0.0067 nM
- koff (Mouse INSL5 [3]): 0.00015 s⁻¹
- kon (Mouse INSL5 [3]): 2.3e+07 M⁻¹ s⁻¹
- Kd (Human INSL5 [4]): 0.11 nM
- koff (Human INSL5 [4]): 0.0026 s⁻¹
- kon (Human INSL5 [4]): 2.4e+07 M⁻¹ s⁻¹
B2: Antibody I (antibody, V domains shown)
VH: QSVEESGGRLVTPGTPLTLTCTASGFSLSSYDMGWVRQTPGEGLEWVGTISAGGYTYYAHWAKGRFTISKSSTTVDLKMTSLTTEDTATYFCARERWNYDRSGGAGAGYFDLWGPGTLVTVSS
VL: DVVMTQTASPVSAAVGGTVTINCQASQSITSSYLSWYQQKPGQPPKLLIYPAANLASGVPSRFKGSGSGTQFTLTISGVQCDDAATYYCLYGYFSSSIDFAFGGGTEVVVRG
